tested on: Escherichia coli TOP10; test: shrunken log2 fold change of peptide-encoding DNA abundance (4.5 h post-induction vs induction); higher = less antimicrobial activity (less host growth inhibition); details: time post-induction: 4.5 h; library: site-saturation at positions 5, 18, 19, 20
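Note: peptides expressed intracellularly from a pBAD plasmid library in pooled LB shake-flask culture, induced with 0.3% L-arabinose, DNA abundance read by NGS, three biological replicates, DESeq2 with apeglm shrinkage.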

Compared with RRIRNRPPRLPRPRPRPAFVPRP, RRIRFRPPRLPRPRPRPTAMPRP is lower in “shrunken log2 fold change” value: 0.154 for the first, -0.105 for the second.

First: RRIRFRPPRLPRPRPRPGGNPRP
Second: RRIRNRPPRLPRPRPRPTTYPRP
The “shrunken log2 fold change” value of the first is higher: 0.149 for the first, -0.228 for the second.

First: RRIRVRPPRLPRPRPRPHHCPRP
Second: RRIRCRPPRLPRPRPRPNLPPRP
The “shrunken log2 fold change” value of the first is lower: -0.74 for the first, 0.649 for the second.

Compared with RRIRNRPPRLPRPRPRPRLMPRP, RRIRPRPPRLPRPRPRPQHNPRP is lower in “shrunken log2 fold change” value: -0.142 for the first, -0.536 for the second.

RRIRKRPPRLPRPRPRPDICPRP and RRIRNRPPRLPRPRPRPHQWPRP are within 0.2 log units of each other in “shrunken log2 fold change” value: 0.0913 for the first, -0.0998 for the second.

RRIRKRPPRLPRPRPRPEPQPRP and RRIRARPPRLPRPRPRPADQPRP are within 0.2 log units of each other in “shrunken log2 fold change” value: 0.637 for the first, 0.755 for the second.

Compared with RRIRYRPPRLPRPRPRPCARPRP, RRIRQRPPRLPRPRPRPFCLPRP is lower in “shrunken log2 fold change” value: -0.0708 for the first, -0.336 for the second.

RRIRKRPPRLPRPRPRPNEVPRP and RRIRVRPPRLPRPRPRPLSCPRP are within 0.2 log units of each other in “shrunken log2 fold change” value: -0.152 for the first, -0.307 for the second.

RRIRNRPPRLPRPRPRPKHTPRP and RRIRQRPPRLPRPRPRPSFPPRP are within 0.2 log units of each other in “shrunken log2 fold change” value: -0.0718 for the first, -0.125 for the second.

Compared with RRIRGRPPRLPRPRPRPKYAPRP, RRIRMRPPRLPRPRPRPFPCPRP is lower in “shrunken log2 fold change” value: 0.501 for the first, -0.0872 for the second.

Going from RRIRMRPPRLPRPRPRPREPPRP to RRIRQRPPRLPRPRPRPLGTPRP, the “shrunken log2 fold change” value falls from 0.447 to 0.139.

Going from RRIRSRPPRLPRPRPRPDFCPRP to RRIRARPPRLPRPRPRPFLKPRP, the “shrunken log2 fold change” value falls from 0.0315 to -0.349.

Going from RRIRYRPPRLPRPRPRPRSNPRP to RRIRPRPPRLPRPRPRPNSSPRP, the “shrunken log2 fold change” value falls from 0.00328 to -0.396.

RRIRHRPPRLPRPRPRPTEQPRP and RRIRCRPPRLPRPRPRPNDDPRP are within 0.2 log units of each other in “shrunken log2 fold change” value: -0.185 for the first, -0.161 for the second.

RRIRNRPPRLPRPRPRPPNWPRP and RRIRCRPPRLPRPRPRPFEFPRP are within 0.2 log units of each other in “shrunken log2 fold change” value: 0.217 for the first, 0.0705 for the second.

Going from RRIRHRPPRLPRPRPRPVGDPRP to RRIRARPPRLPRPRPRPAPIPRP, the “shrunken log2 fold change” value rises from -0.206 to 0.448.

First: RRIRYRPPRLPRPRPRPMYNPRP
Second: RRIRWRPPRLPRPRPRPDTEPRP
The “shrunken log2 fold change” value of the first is lower: -1.23 for the first, 0.14 for the second.

RRIRMRPPRLPRPRPRPTKAPRP and RRIRCRPPRLPRPRPRPKCKPRP are within 0.2 log units of each other in “shrunken log2 fold change” value: 0.26 for the first, 0.0809 for the second.

RRIRQRPPRLPRPRPRPAHLPRP and RRIRERPPRLPRPRPRPREMPRP are within 0.2 log units of each other in “shrunken log2 fold change” value: 0.362 for the first, 0.203 for the second.

RRIRWRPPRLPRPRPRPLPVPRP and RRIRHRPPRLPRPRPRPYKTPRP are within 0.2 log units of each other in “shrunken log2 fold change” value: -0.0992 for the first, -0.00968 for the second.

RRIRIRPPRLPRPRPRPRFWPRP and RRIRCRPPRLPRPRPRPRQPPRP are within 0.2 log units of each other in “shrunken log2 fold change” value: 0.345 for the first, 0.249 for the second.

Going from RRIRARPPRLPRPRPRPAQLPRP to RRIRNRPPRLPRPRPRPGISPRP, the “shrunken log2 fold change” value falls from 0.324 to 0.0154.

Compared with RRIRYRPPRLPRPRPRPAVNPRP, RRIRERPPRLPRPRPRPSICPRP is lower in “shrunken log2 fold change” value: 0.063 for the first, -0.151 for the second.

Going from RRIRFRPPRLPRPRPRPGGFPRP to RRIRMRPPRLPRPRPRPCTAPRP, the “shrunken log2 fold change” value falls from 0.42 to 0.191.

RRIRFRPPRLPRPRPRPWLEPRP and RRIRGRPPRLPRPRPRPFSFPRP are within 0.2 log units of each other in “shrunken log2 fold change” value: 0.0931 for the first, 0.268 for the second.

First: RRIRTRPPRLPRPRPRPGPHPRP
Second: RRIRCRPPRLPRPRPRPGRIPRP
The “shrunken log2 fold change” value of the first is higher: 0.124 for the first, -0.231 for the second.

Compared with RRIRFRPPRLPRPRPRPPKDPRP, RRIRRRPPRLPRPRPRPRETPRP is higher in “shrunken log2 fold change” value: 0.248 for the first, 1.13 for the second.

First: RRIRVRPPRLPRPRPRPFVDPRP
Second: RRIRKRPPRLPRPRPRPWPQPRP
The “shrunken log2 fold change” value of the first is lower: -0.385 for the first, 0.0865 for the second.

First: RRIRWRPPRLPRPRPRPCHTPRP
Second: RRIRARPPRLPRPRPRPNYAPRP
The “shrunken log2 fold change” value of the first is lower: -0.53 for the first, -0.0399 for the second.

RRIRERPPRLPRPRPRPQYHPRP and RRIRDRPPRLPRPRPRPIIMPRP are within 0.2 log units of each other in “shrunken log2 fold change” value: -0.172 for the first, -0.226 for the second.

Going from RRIRDRPPRLPRPRPRPTLAPRP to RRIRGRPPRLPRPRPRPKVRPRP, the “shrunken log2 fold change” value falls from 0.933 to 0.105.

RRIRCRPPRLPRPRPRPCMGPRP and RRIRERPPRLPRPRPRPQWQPRP are within 0.2 log units of each other in “shrunken log2 fold change” value: -0.241 for the first, -0.109 for the second.

First: RRIRNRPPRLPRPRPRPMWPPRP
Second: RRIRSRPPRLPRPRPRPYHFPRP
The “shrunken log2 fold change” value of the first is higher: -0.00481 for the first, -1.8 for the second.

First: RRIRERPPRLPRPRPRPTSHPRP
Second: RRIRMRPPRLPRPRPRPIPWPRP
The “shrunken log2 fold change” value of the first is lower: -0.239 for the first, -0.033 for the second.

RRIRVRPPRLPRPRPRPMVYPRP and RRIRSRPPRLPRPRPRPSCGPRP are within 0.2 log units of each other in “shrunken log2 fold change” value: -0.17 for the first, -0.0515 for the second.

Compared with RRIRQRPPRLPRPRPRPQRYPRP, RRIRVRPPRLPRPRPRPCCPPRP is lower in “shrunken log2 fold change” value: -0.0112 for the first, -0.25 for the second.

RRIRCRPPRLPRPRPRPWTVPRP and RRIRPRPPRLPRPRPRPTNQPRP are within 0.2 log units of each other in “shrunken log2 fold change” value: -0.145 for the first, -0.182 for the second.

RRIRNRPPRLPRPRPRPDFKPRP and RRIRTRPPRLPRPRPRPYWVPRP are within 0.2 log units of each other in “shrunken log2 fold change” value: -0.0167 for the first, -0.0888 for the second.

Compared with RRIRGRPPRLPRPRPRPANMPRP, RRIRGRPPRLPRPRPRPNVYPRP is higher in “shrunken log2 fold change” value: -0.139 for the first, 0.205 for the second.

RRIRWRPPRLPRPRPRPNKDPRP and RRIRYRPPRLPRPRPRPSGCPRP are within 0.2 log units of each other in “shrunken log2 fold change” value: -0.393 for the first, -0.264 for the second.

Going from RRIRPRPPRLPRPRPRPKVPPRP to RRIRWRPPRLPRPRPRPHYQPRP, the “shrunken log2 fold change” value falls from 0.303 to -0.00398.

Going from RRIRNRPPRLPRPRPRPIHDPRP to RRIRFRPPRLPRPRPRPEGMPRP, the “shrunken log2 fold change” value falls from 0.177 to -0.0976.

Compared with RRIRKRPPRLPRPRPRPYLIPRP, RRIRERPPRLPRPRPRPPKIPRP is higher in “shrunken log2 fold change” value: -1.9 for the first, -0.28 for the second.

First: RRIRSRPPRLPRPRPRPCIVPRP
Second: RRIRARPPRLPRPRPRPLILPRP
The “shrunken log2 fold change” value of the first is lower: -1.05 for the first, -0.252 for the second.

RRIRNRPPRLPRPRPRPPMIPRP and RRIRFRPPRLPRPRPRPGVVPRP are within 0.2 log units of each other in “shrunken log2 fold change” value: 0.102 for the first, 0.231 for the second.

RRIRMRPPRLPRPRPRPGEKPRP and RRIRVRPPRLPRPRPRPQRTPRP are within 0.2 log units of each other in “shrunken log2 fold change” value: 0.00581 for the first, -0.0863 for the second.

Compared with RRIRGRPPRLPRPRPRPTMHPRP, RRIRIRPPRLPRPRPRPTRIPRP is lower in “shrunken log2 fold change” value: 0.715 for the first, 0.0411 for the second.

RRIRDRPPRLPRPRPRPNITPRP and RRIRPRPPRLPRPRPRPDNIPRP are within 0.2 log units of each other in “shrunken log2 fold change” value: -0.289 for the first, -0.406 for the second.

First: RRIRSRPPRLPRPRPRPFWGPRP
Second: RRIRWRPPRLPRPRPRPKILPRP
The “shrunken log2 fold change” value of the first is higher: 0.176 for the first, -0.0469 for the second.

Compared with RRIRSRPPRLPRPRPRPTRNPRP, RRIRTRPPRLPRPRPRPDLFPRP is lower in “shrunken log2 fold change” value: 0.29 for the first, -0.0784 for the second.

Going from RRIRHRPPRLPRPRPRPTGKPRP to RRIRQRPPRLPRPRPRPIWSPRP, the “shrunken log2 fold change” value falls from -0.00448 to -0.514.

RRIRYRPPRLPRPRPRPSWPPRP and RRIRPRPPRLPRPRPRPNMNPRP are within 0.2 log units of each other in “shrunken log2 fold change” value: -0.613 for the first, -0.584 for the second.

RRIRQRPPRLPRPRPRPFQIPRP and RRIRRRPPRLPRPRPRPKLLPRP are within 0.2 log units of each other in “shrunken log2 fold change” value: 0.0399 for the first, 0.178 for the second.

RRIRARPPRLPRPRPRPFKAPRP and RRIRGRPPRLPRPRPRPWKKPRP are within 0.2 log units of each other in “shrunken log2 fold change” value: 0.0354 for the first, -0.00973 for the second.

With RRIRWRPPRLPRPRPRPKEYPRP the “shrunken log2 fold change” value was 0.02.
